Patent US20230181754A1 (BRIGHT PEAK THERAPEUTICS, published 2023)

What was measured:
[1] = target: T1, recombinant biotinylated human Fc gamma receptor IIa (FcγRIIa/CD32a 167H) (human, UniProt P12318 36-218, limits assumed, biotinylated); assay: AlphaLISA competition: free antibody competes with human IgG Fc on acceptor beads for biotinylated human FcγRIIa on streptavidin donor beads
T1 sequence (looked up): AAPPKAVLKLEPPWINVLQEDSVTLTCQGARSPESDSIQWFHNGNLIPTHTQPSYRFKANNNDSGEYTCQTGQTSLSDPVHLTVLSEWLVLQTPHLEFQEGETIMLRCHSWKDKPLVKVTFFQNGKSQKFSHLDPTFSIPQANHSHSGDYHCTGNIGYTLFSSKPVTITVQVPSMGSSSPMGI

[2] = target: T2, recombinant biotinylated human Fc gamma receptor I (FcγRI/CD64) (human, UniProt P12314 16-288, limits assumed, biotinylated); assay: AlphaLISA competition: free antibody competes with human IgG Fc on acceptor beads for biotinylated human FcγRI on streptavidin donor beads
T2 construct: also called FcγR1
T2 sequence (P12314 16-288 limits assumed): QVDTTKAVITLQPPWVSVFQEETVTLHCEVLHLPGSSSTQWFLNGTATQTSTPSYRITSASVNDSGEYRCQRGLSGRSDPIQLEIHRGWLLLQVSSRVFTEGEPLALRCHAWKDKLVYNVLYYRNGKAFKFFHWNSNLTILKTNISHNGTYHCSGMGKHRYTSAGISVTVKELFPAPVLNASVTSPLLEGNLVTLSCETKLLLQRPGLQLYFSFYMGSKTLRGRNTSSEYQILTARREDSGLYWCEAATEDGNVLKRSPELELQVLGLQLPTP

B1: Durvalumab (unmodified anti-PD-L1 antibody) (antibody, human IgG1, kappa)
heavy: EVQLVESGGGLVQPGGSLRLSCAASGFTFSRYWMSWVRQAPGKGLEWVANIKQDGSEKYYVDSVKGRFTISRDNAKNSLYLQMNSLRAEDTAVYYCAREGGWFGELAFDYWGQGTLVTVSSASTKGPSVFPLAPSSKSTSGGTAALGCLVKDYFPEPVTVSWNSGALTSGVHTFPAVLQSSGLYSLSSVVTVPSSSLGTQTYICNVNHKPSNTKVDKRVEPKSCDKTHTCPPCPAPEFEGGPSVFLFPPKPKDTLMISRTPEVTCVVVDVSHEDPEVKFNWYVDGVEVHNAKTKPREEQYNSTYRVVSVLTVLHQDWLNGKEYKCKVSNKALPASIEKTISKAKGQPREPQVYTLPPSREEMTKNQVSLTCLVKGFYPSDIAVEWESNGQPENNYKTTPPVLDSDGSFFLYSKLTVDKSRWQQGNVFSCSVMHEALHNHYTQKSLSLSPGK
light: EIVLTQSPGTLSLSPGERATLSCRASQRVSSSYLAWYQQKPGQAPRLLIYDASSRATGIPDRFSGSGSGTDFTLTISRLEPEDFAVYYCQQYGSLPWTFGQGTKVEIKRTVAAPSVFIFPPSDEQLKSGTASVVCLLNNFYPREAKVQWKVDNALQSGNSQESVTEQDSKDSTYSLSSTLTLSKADYEKHKVYACEVTHQGLSSPVTKSFNRGEC
notes: also called Imfinzi; MEDI-4736
[1]
  IC50 (read off the curve): ~400 nM
[2]
  binding result: binds
